Laboratory results reported in patent US20230279406A1.
One block for each binder: values may come before it.

How the values were obtained:
Assay in all cases: cell-based or functional assay
[1] = biological target: T1, CD374 PV1-RfxCas13d-560C-NLS-BGHpA
T1 sequence: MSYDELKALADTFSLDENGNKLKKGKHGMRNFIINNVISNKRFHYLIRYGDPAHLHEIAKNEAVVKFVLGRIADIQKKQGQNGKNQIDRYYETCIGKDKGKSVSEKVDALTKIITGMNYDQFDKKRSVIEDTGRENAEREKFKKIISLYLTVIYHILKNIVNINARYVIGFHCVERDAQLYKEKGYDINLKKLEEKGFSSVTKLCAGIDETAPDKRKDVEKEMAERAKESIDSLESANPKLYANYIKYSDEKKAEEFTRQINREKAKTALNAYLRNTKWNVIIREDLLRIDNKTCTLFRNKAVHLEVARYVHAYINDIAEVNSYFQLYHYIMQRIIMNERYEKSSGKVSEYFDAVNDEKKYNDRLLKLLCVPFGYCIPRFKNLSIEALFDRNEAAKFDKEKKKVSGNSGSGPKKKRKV

[2] = biological target: T2, CD246 PV1-GAI-L1-RfxCas13d-566C-NLS-BGHpA
T2 sequence: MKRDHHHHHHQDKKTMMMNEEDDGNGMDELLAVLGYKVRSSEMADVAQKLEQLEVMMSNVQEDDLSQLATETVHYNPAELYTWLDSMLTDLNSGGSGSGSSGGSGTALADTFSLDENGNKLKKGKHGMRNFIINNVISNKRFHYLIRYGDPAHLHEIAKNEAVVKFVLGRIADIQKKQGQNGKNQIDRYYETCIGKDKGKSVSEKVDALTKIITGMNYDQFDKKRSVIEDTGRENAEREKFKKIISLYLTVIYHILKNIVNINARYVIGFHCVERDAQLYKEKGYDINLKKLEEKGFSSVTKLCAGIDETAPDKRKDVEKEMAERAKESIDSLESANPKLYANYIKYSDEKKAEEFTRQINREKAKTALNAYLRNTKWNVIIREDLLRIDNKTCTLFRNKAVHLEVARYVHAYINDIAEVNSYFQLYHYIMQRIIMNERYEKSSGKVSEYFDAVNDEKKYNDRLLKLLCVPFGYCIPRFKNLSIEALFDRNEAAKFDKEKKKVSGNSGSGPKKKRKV

[3] = biological target: T3, CD244 PV1-GAI-L1-RfxCas13d-560C-NLS-BGHpA
T3 sequence: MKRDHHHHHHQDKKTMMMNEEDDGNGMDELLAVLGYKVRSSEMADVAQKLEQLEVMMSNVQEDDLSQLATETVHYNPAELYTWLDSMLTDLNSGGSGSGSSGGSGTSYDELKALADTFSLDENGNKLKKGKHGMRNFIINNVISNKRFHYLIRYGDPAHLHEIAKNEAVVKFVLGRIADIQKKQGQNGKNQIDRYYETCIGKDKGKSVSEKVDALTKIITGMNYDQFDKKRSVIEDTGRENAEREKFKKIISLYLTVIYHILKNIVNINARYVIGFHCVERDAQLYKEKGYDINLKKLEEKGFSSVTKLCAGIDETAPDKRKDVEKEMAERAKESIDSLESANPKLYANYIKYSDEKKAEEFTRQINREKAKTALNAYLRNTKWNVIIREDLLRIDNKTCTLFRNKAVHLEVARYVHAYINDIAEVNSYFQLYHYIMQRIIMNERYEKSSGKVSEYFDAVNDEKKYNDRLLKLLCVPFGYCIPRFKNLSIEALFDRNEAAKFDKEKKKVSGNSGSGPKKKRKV

[4] = biological target: CD92 PV1-CaffVHH-L1-iCre-271C-NLS-BGHpA
[5] = biological target: T4, CD400 PV1-GAI-L1-RfxCas13d-264C-NLS-BGHpA
T4 sequence: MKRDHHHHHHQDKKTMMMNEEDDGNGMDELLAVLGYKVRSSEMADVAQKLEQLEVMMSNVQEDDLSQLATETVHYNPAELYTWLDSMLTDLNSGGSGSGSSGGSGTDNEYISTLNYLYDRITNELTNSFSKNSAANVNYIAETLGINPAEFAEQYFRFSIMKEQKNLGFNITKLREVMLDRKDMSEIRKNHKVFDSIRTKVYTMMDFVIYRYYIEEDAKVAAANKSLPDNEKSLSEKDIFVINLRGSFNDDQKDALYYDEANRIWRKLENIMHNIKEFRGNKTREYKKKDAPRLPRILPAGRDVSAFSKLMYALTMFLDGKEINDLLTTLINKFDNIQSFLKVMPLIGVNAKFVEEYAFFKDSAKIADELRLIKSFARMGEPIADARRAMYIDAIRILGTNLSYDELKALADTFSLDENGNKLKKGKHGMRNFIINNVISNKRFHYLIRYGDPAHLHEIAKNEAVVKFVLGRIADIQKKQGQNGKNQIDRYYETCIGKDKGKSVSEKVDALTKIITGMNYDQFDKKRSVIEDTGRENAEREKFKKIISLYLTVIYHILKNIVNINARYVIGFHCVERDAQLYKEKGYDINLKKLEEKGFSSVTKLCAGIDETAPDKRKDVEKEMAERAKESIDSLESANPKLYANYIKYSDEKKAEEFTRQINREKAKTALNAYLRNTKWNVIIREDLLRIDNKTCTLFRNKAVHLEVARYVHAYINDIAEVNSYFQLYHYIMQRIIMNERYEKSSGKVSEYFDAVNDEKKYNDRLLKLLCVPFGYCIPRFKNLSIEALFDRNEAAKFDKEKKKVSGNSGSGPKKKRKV

Chain of CD92 PV1-CaffVHH-L1-iCre-271C-NLS-BGHpA (chain, as listed by the source): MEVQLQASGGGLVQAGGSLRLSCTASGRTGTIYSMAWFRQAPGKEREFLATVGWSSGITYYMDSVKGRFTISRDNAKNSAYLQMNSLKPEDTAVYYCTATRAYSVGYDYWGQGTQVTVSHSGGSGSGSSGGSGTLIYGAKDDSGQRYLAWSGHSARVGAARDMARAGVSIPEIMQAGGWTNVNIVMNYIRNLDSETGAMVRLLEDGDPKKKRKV

B2: CD245 PV1-RfxCas13d-N565-L1-GID-NLS-BGHpA (protein)
chain: MIEKKKSFAKGMGVKSTLVSGSKVYMTTFAEGSDARLEKIVEGDSIRSVNEGEAFSAEMADKNAGYKIGNAKFSHPKGYAVVANNPLYTGPVQQDMLGLKETLEKRYFGESADGNDNICIQVIHNILDIEKILAEYITNAAYAVNNISGLDKDIIGFGKFSTVYTYDEFKDPEHHRAAFNNNDKLINAIKAQYDEFDNFLDNPRLGYFGQAFFSKEGRNYIINYGNECYDILALLSGLRHWVVHNNEEESRISRTWLYNLDKNLDNEYISTLNYLYDRITNELTNSFSKNSAANVNYIAETLGINPAEFAEQYFRFSIMKEQKNLGFNITKLREVMLDRKDMSEIRKNHKVFDSIRTKVYTMMDFVIYRYYIEEDAKVAAANKSLPDNEKSLSEKDIFVINLRGSFNDDQKDALYYDEANRIWRKLENIMHNIKEFRGNKTREYKKKDAPRLPRILPAGRDVSAFSKLMYALTMFLDGKEINDLLTTLINKFDNIQSFLKVMPLIGVNAKFVEEYAFFKDSAKIADELRLIKSFARMGEPIADARRAMYIDAIRILGTNLSYDELKSGGSGSGSSGGSGTMAASDEVNLIESRTVVPLNTWVLISNFKVAYNILRRPDGTFNRHLAEYLDRKVTANANPVDGVFSFDVLIDRRINLLSRVYRPAYADQEQPPSILDLEKPVDGDIVPVILFFHGGSFAHSSANSAIYDTLCRRLVGLCKCVVVSVNYRRAPENPYPCAYDDGWIALNWVNSRSWLKSKKDSKVHIFLAGDSSGGNIAHNVALRAGESGIDVLGNILLNPMFGGNERTESEKSLDGKYFVTVRDRDWYWKAFLPEGEDREHPACNPFSPRGKSLEGVSFPKSLVVVAGLDLIRDWQLAYAEGLKKAGQEVKLMHLEKATVGFYLLPNNNHFHNVMDEISAFVNAECPKKKRKV
mCherry knockdown with gRNA and gibberellin (drug-induced) [2]: > 75%
mCherry knockdown with gRNA, without gibberellin (basal) [2]: 10 to 20%

B3: CD243 PV1-RfxCas13d-N559-L1-GID-NLS-BGHpA (protein)
chain: MIEKKKSFAKGMGVKSTLVSGSKVYMTTFAEGSDARLEKIVEGDSIRSVNEGEAFSAEMADKNAGYKIGNAKFSHPKGYAVVANNPLYTGPVQQDMLGLKETLEKRYFGESADGNDNICIQVIHNILDIEKILAEYITNAAYAVNNISGLDKDIIGFGKFSTVYTYDEFKDPEHHRAAFNNNDKLINAIKAQYDEFDNFLDNPRLGYFGQAFFSKEGRNYIINYGNECYDILALLSGLRHWVVHNNEEESRISRTWLYNLDKNLDNEYISTLNYLYDRITNELTNSFSKNSAANVNYIAETLGINPAEFAEQYFRFSIMKEQKNLGFNITKLREVMLDRKDMSEIRKNHKVFDSIRTKVYTMMDFVIYRYYIEEDAKVAAANKSLPDNEKSLSEKDIFVINLRGSFNDDQKDALYYDEANRIWRKLENIMHNIKEFRGNKTREYKKKDAPRLPRILPAGRDVSAFSKLMYALTMFLDGKEINDLLTTLINKFDNIQSFLKVMPLIGVNAKFVEEYAFFKDSAKIADELRLIKSFARMGEPIADARRAMYIDAIRILGTNLSGGSGSGSSGGSGTMAASDEVNLIESRTVVPLNTWVLISNFKVAYNILRRPDGTFNRHLAEYLDRKVTANANPVDGVFSFDVLIDRRINLLSRVYRPAYADQEQPPSILDLEKPVDGDIVPVILFFHGGSFAHSSANSAIYDTLCRRLVGLCKCVVVSVNYRRAPENPYPCAYDDGWIALNWVNSRSWLKSKKDSKVHIFLAGDSSGGNIAHNVALRAGESGIDVLGNILLNPMFGGNERTESEKSLDGKYFVTVRDRDWYWKAFLPEGEDREHPACNPFSPRGKSLEGVSFPKSLVVVAGLDLIRDWQLAYAEGLKKAGQEVKLMHLEKATVGFYLLPNNNHFHNVMDEISAFVNAECPKKKRKV
mCherry knockdown with gRNA and gibberellin (drug-induced) [3]: > 75%
mCherry knockdown with gRNA, without gibberellin (basal) [3]: 10 to 20%

B4: CD91 PV1-iCre-N270-L1-CaffVHH-NLS-BGHpA (protein)
chain: MSNLLTVHQNLPALPVDATSDEVRKNLMDMFRDRQAFSEHTWKMLLSVCRSWAAWCKLNNRKWFPAEPEDVRDYLLYLQARGLAVKTIQQHLGQLNMLHRRSGLPRPSDSNAVSLVMRRIRKENVDAGERAKQALAFERTDFDQVRSLMENSDRCQDIRNLAFLGIAYNTLLRIAEIARIRVKDISRTDGGRMLIHIGRTKTLVSTAGVEKALSLGVTKLVERWISVSGVADDPNNYLFCRVRKNGVAAPSATSQLSTRALEGIFEATHRSGGSGSGSSGGSGTMEVQLQASGGGLVQAGGSLRLSCTASGRTGTIYSMAWFRQAPGKEREFLATVGWSSGITYYMDSVKGRFTISRDNAKNSAYLQMNSLKPEDTAVYYCTATRAYSVGYDYWGQGTQVTVSHPKKKRKV
Cre reporter expression (share of transfected cells), 25 uM caffeine for 5 hours (% of transfected cells) [4]: 30
Cre reporter turned on (share of transfected cells), caffeine at least 50 uM, induction at least 5 hours (% transfected cells) [4]: 38
Cre reporter turned on (share of transfected cells), caffeine induction, 48 hours (% transfected cells) [4]: > 80

Results, then the binder that gave them:

gRNA induced mCherry knockdown efficiency, no CID domain [1]: < 80%
B1: CD373 PV1-RfxCas13d-N559-NLS-BGHpA (protein)
chain: MIEKKKSFAKGMGVKSTLVSGSKVYMTTFAEGSDARLEKIVEGDSIRSVNEGEAFSAEMADKNAGYKIGNAKFSHPKGYAVVANNPLYTGPVQQDMLGLKETLEKRYFGESADGNDNICIQVIHNILDIEKILAEYITNAAYAVNNISGLDKDIIGFGKFSTVYTYDEFKDPEHHRAAFNNNDKLINAIKAQYDEFDNFLDNPRLGYFGQAFFSKEGRNYIINYGNECYDILALLSGLRHWVVHNNEEESRISRTWLYNLDKNLDNEYISTLNYLYDRITNELTNSFSKNSAANVNYIAETLGINPAEFAEQYFRFSIMKEQKNLGFNITKLREVMLDRKDMSEIRKNHKVFDSIRTKVYTMMDFVIYRYYIEEDAKVAAANKSLPDNEKSLSEKDIFVINLRGSFNDDQKDALYYDEANRIWRKLENIMHNIKEFRGNKTREYKKKDAPRLPRILPAGRDVSAFSKLMYALTMFLDGKEINDLLTTLINKFDNIQSFLKVMPLIGVNAKFVEEYAFFKDSAKIADELRLIKSFARMGEPIADARRAMYIDAIRILGTNLPKKKRKV

mCherry knockdown efficiency with GIB CID domains [5]: > 60%
B5: CD399 PV1-RfxCas13d-N263-L1-GID-NLS-BGHpA (protein)
chain: MIEKKKSFAKGMGVKSTLVSGSKVYMTTFAEGSDARLEKIVEGDSIRSVNEGEAFSAEMADKNAGYKIGNAKFSHPKGYAVVANNPLYTGPVQQDMLGLKETLEKRYFGESADGNDNICIQVIHNILDIEKILAEYITNAAYAVNNISGLDKDIIGFGKFSTVYTYDEFKDPEHHRAAFNNNDKLINAIKAQYDEFDNFLDNPRLGYFGQAFFSKEGRNYIINYGNECYDILALLSGLRHWVVHNNEEESRISRTWLYNLDKNLSGGSGSGSSGGSGTMAASDEVNLIESRTVVPLNTWVLISNFKVAYNILRRPDGTFNRHLAEYLDRKVTANANPVDGVFSFDVLIDRRINLLSRVYRPAYADQEQPPSILDLEKPVDGDIVPVILFFHGGSFAHSSANSAIYDTLCRRLVGLCKCVVVSVNYRRAPENPYPCAYDDGWIALNWVNSRSWLKSKKDSKVHIFLAGDSSGGNIAHNVALRAGESGIDVLGNILLNPMFGGNERTESEKSLDGKYFVTVRDRDWYWKAFLPEGEDREHPACNPFSPRGKSLEGVSFPKSLVVVAGLDLIRDWQLAYAEGLKKAGQEVKLMHLEKATVGFYLLPNNNHFHNVMDEISAFVNAECPKKKRKV
